Experimental data from patent US20130078188A1.

Target: thrombin (endogenous, in developing blood clots of mice) (mouse) (UniProt P19221)
Experiment: cell-based or functional assay

hirudin, sequence (P01050 whole entry): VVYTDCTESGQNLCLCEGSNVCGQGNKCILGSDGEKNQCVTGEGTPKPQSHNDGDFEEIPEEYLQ

## hirudin (from UniProt P01050 1-65)
  inhibition of the Cy5/Cy7 ratio increase of … in tail clots of mice: > 90%
